Consider one substance from patent US20050244416A1.

For this test, the target named is melanoma-associated proteoglycan expressed on M21 and SKMel63 melanoma cells (UniProt Q6UVK1). Kind of test: cell-based or functional assay.
UniProt Q6UVK1, sequence (Q6UVK1 30-2322 limits assumed): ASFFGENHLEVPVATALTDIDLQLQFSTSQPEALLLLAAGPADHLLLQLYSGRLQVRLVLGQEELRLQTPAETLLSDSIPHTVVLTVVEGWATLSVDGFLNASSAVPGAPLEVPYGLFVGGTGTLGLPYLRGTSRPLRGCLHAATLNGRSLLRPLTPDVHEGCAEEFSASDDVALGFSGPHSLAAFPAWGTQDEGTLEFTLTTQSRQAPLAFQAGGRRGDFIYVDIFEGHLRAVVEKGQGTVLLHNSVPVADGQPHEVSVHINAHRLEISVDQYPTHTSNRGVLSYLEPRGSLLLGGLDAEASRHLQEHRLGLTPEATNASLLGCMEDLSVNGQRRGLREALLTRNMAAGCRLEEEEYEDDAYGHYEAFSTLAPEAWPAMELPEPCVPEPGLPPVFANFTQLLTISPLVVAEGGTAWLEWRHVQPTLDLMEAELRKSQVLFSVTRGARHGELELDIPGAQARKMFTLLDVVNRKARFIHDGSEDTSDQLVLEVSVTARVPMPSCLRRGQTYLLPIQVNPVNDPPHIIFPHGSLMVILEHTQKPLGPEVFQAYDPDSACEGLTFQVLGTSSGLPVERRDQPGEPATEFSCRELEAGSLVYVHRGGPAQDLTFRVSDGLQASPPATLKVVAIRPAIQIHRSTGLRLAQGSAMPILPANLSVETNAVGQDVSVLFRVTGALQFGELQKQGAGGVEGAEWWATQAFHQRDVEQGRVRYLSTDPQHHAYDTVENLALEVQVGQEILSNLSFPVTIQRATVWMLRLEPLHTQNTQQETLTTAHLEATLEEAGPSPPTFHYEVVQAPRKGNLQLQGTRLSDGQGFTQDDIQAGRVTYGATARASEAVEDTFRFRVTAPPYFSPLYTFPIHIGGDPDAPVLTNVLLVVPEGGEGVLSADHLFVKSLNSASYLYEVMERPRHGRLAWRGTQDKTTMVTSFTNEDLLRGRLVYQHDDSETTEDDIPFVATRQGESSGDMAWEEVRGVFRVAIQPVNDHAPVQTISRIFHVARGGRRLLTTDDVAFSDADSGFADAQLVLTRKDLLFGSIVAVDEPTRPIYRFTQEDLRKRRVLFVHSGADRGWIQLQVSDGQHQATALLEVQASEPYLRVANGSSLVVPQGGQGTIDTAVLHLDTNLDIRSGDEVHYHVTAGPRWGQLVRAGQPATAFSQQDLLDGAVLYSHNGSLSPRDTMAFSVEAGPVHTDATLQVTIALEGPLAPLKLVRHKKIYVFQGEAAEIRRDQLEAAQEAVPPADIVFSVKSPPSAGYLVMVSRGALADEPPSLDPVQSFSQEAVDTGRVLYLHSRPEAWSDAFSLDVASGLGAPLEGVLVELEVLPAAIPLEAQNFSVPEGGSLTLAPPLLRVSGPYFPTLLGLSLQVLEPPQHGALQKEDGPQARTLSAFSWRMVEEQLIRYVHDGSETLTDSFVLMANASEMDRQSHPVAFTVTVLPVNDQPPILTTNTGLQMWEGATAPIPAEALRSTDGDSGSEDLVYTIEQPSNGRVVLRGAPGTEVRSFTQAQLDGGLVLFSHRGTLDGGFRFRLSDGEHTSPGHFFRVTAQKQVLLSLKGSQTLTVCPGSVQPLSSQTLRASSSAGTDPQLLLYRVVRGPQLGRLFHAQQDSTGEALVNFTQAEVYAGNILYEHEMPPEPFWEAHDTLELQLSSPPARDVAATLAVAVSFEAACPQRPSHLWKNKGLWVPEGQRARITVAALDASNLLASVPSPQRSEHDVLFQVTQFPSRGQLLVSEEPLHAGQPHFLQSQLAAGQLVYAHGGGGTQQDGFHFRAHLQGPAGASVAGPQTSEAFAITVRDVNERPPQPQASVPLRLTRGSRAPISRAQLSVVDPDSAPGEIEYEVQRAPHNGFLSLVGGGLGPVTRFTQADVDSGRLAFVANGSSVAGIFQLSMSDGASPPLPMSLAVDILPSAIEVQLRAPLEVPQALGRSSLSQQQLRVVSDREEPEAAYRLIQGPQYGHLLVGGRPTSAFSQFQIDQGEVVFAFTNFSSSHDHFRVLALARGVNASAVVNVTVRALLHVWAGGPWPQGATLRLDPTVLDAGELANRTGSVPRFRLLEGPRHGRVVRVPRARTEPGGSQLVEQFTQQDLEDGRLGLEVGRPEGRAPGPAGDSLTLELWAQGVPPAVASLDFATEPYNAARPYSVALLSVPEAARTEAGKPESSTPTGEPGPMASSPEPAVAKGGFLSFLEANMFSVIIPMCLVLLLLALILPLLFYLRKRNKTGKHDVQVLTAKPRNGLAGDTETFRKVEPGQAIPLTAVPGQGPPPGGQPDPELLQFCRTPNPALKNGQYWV

Turning to “chemically hybridized bispecific F(ab')2 fragment with melanoma (9.2.27) and CD28 (9.3) specificity (cM28) (bispecific antibody)”, the T cell proliferation (3H-thymidine uptake) of PBMC in the presence of irradiated SKMel63 cells is more than 300 ng/mL.
